Measurements from the DeepSol protein solubility set.

test: soluble on expression in E. coli; label from the status in PepcDB or PDB records

| Sequence | soluble on expression in E. coli |
| --- | --- |
| MAKPILYSYWRSSCAWRVRIALALKNIDYEYRPIDLFSEESKNNAEFVKHNPAKKVPTLVINGLSLTESLAIIEYLDEAYPDPPFLPKELDKRSYSRAIALHIVASIQPLQAINIHKMLNEKEPGYGDFWCNHFVNKGFLALEELLKKHSGKYCVGDQLTIADINLPSIIYNAKIYKVDMSKYPTITRINEILAEDFRFKLAHPDNQPDAPNKN | not soluble |
| MSDYSAKPSGSLARIGDYDLSSDDSDQNDEDETLIASKTIQTGAVQVNDIAVAEASPAETDAKSSASPVSGPEPPTSAVVENRDLDEFKKESGSNDDKQEEINEDKDSNEETVFQQTESGSADVVDKTDVKQKDSDSSADDDHSHSKSGSVHSPQKPQGSTTPCSVQSPASPVGDEQAVKMEEVEEPIVASEEVPDKKPESVKESTDSESSGSEHGFEKMDTAEKVEDECNDDEVAASNGTEEPEPGDKAADTVNPWETPRQEPVDGVVQPRTEPPAGKPTRHTNCLDFVLFTVVKDALKHKHSWPFQLPVDAIKLEIPEYHNIVNTPMDLRTIEKRLRNLYYWCAEDAIKDLNTLFDNCKKFNDRNDDIYIMCENIEGVVQRGLEWMPSEEKPADLADHHRRGMFSASTPSGKTKGPKQRGRKSTRGRKKTSLPRGASTFKDESVDDNNDDESSKVDSINFDDDDDTATEKDAESRAESVQPEVVNEEPKPSTSQPPSKKRKAENGEPAVAVKIATPATPVAAHPQEETPRRKNPNTLIEWKHLVPRWQGKIPEWQKFCSKLLNEIHSVKNKGFAQVFYLPVDPIKLKIYDYLEVITNPMDLQTIKKKLDFKQYAEPEEFVHDINLMVDNCCKYNPKGSPAHSNALELRSFFEQRWKLFPRPGVDPIIADSYINQNLVVNTDLIEDERINSYLSAVKAEEKKCAEKLEQLRSMSEGLYTIAMQRREAKLAGNTAPALAQNQLSQLEGLGISIKSTPMMIPELISPALSVRSSSRAPVPKIIDDIGPSPIKARKISKPRASMASNVSVPYTPTGNPRGRKPKKSGRPKKNIYSPATVSERISQQPPFEVTPYVSIYGRKVVGTNDKIELSERMASIPQMYITPILRIIQIGHHNTGKTITSLRSLCEEEIDFNDVSDDLVIELLDYLEMIQKDKAKAEQVRQELEVKAKFYGFEAYDNKLGTIPKTRNMPPPLQHRMRSDSPSPSASRTGNQSSDSDSASDDSSDDEPSRSNSNVAGPRRALELSGNSSSASTPAGPSKAQPAVVRPSSKSVASKPAYTKRTLSESSSSSDSNGSSSDSSDSDSEPS | not soluble |
| MGSDKIHHHHHHMSAEDYKNLPVTVEKPIPVVYDLGNLAAFDSNVLDKNDLDSSNARREEKIKSLTRDNVQLLINQLLSLPMKTTTESVGGTGGQSSVMTLLQLPDPTTDLPREKPLPKAKAMTKWEKFAAKKGIKPKERAGKMIYDEASGEWVPKWGYKGANKKLDDQWLVEVDDKVKGTDNELIDPRTLNRAERKRLVKKNEKQQRRNMKNAL | not soluble |
| MRKKPLTIFSDGTLTRRENTLYFESAKGRKPLAIEGIYDIYIYGHVNITSQALHYIAQKGILIHFFNHYGYYDGTFYPRETLLSGDLIIRQAEHYLNKEKRLFLAKSFVTGGTKNMERNLKNWGIKAKLSDYLDELNDARKITEIMNVEARIRQEYYAKWDENLPEEFKIVKRTRRPPKNEMNALISFLNSRLYATIITEIYNTQLAPTISYLHEPSERRFSLSLDLSEIFKPIIADRVANRLVKKGSLKKEHFREDLNGVLLTEEGMKIVTKAYNEELQKSVKHPKIGSNVTRQRLIRLEAYKLIKHLVGVEEYKPLVAWF | soluble |
| MSEFSPLRRKILLGGAATAGLSLFPSFSFASQFAETPRKLALSNLHTGEELKTEYFNGRQYQSAELHKLNHLCRDFRRNESIEMDKRLFDQLSAIQNVIGCDTQVQIISGYRSPATNEMLRGKSHGGVAKKSLHMLGKAMDFRLEGVPLAEVRKAALSLKAGGVGYYPGSNFVHIDTGRVRFW | not soluble |
| MAHHHHHHMRAAPTRLAPSTVASLGRSHCGSQAYHLDAAGAAGWRRRRRLTGVSMTTTHTVAPAVSALPFSLSTARRTYYWPYPENLVPEGATTSPFQSSPVPSVRERIIREYALGPLFGSRTPCCVLGFAGTARDVAACKRDVRRWVARALGKSEADVELGALVQAKEMLLHRSGTDESPRLGDGPGSRPDAEQRRVTRYARLPVQARTLLEVYLPGEEHGEVDAAADADATILAHGYFLQEQLHRHMTTTASSGSDPTGRRDSEDCQPEEPARKMQSHCQGCSEPNDEADVKSSVAALHDVCGVIYCEVPVLDESDFAFDQLCGKEVDDETTERVTDRWTRRAMQQQPQL | soluble |
| MTKKVGIVDTTFARVDMASIAIKKLKELSPNIKIIRKTVPGIKDLPVACKKLLEEEGCDIVMALGMPGKAEKDKVCAHEASLGLMLAQLMTNKHIIEVFVHEDEAKDDKELDWLAKRRAEEHAENVYYLLFKPEYLTRMAGKGLRQGFEDAGPARE | soluble |
